Laboratory results as given in publication PMC8034618.

Key:
Test in all cases: EMSA
[1] = test system: LARP1 665-947 cluster 6 full phosphomimetic (10 sites) (Homo sapiens); conditions: tRNA and BSA competitors; stated 4.99-fold reduction; m7Gppp cap; EMSA: 20 mM Tris-HCl pH 8, 150 mM NaCl, 10% glycerol, 1 mM DTT, 0.5 ug tRNA, 1 ug BSA in …; on ice 30 min; 7-8% native 0.5x TBE gel at 4 C; RNA <=200 pM
[2] = test system: LARP1 665-947 cluster 6 partial phosphomimetic (5 sites) (Homo sapiens); conditions: tRNA and BSA competitors; m7Gppp cap; EMSA: 20 mM Tris-HCl pH 8, 150 mM NaCl, 10% glycerol, 1 mM DTT, 0.5 ug tRNA, 1 ug BSA in 10 ul; on ice 30 min; 7-8% native 0.5x TBE gel at 4 C; RNA <=200 pM
[3] = test system: LARP1 796-1019 cluster 7 phosphomimetic (Homo sapiens); conditions: tRNA and BSA competitors; enhanced relative to WT 796-1019; m7Gppp cap; EMSA: 20 mM Tris-HCl pH 8, 150 mM NaCl, 10% glycerol, 1 mM DTT, 0.5 ug tRNA, 1 ug BSA in 10 ul; on ice 30 min; 7-8% native 0.5x TBE gel at 4 C; RNA <=200 pM

Which results are given for m7G-RPS6-UTR (capped RPS6 20-mer)?
Kd [1]: 2840 nM; Kd [2]: 902 nM; Kd [3]: 44 nM
